B1: RecF (Gal4 fusion for yeast two-hybrid) (natural protein, E. coli, UniProt P0A7H0 1-357, looked up)
chain: MSLTRLLIRDFRNIETADLALSPGFNFLVGANGSGKTSVLEAIYTLGHGRAFRSLQIGRVIRHEQEAFVLHGRLQGEERETAIGLTKDKQGDSKVRIDGTDGHKVAELAHLMPMQLITPEGFTLLNGGPKYRRAFLDWGCFHNEPGFFTAWSNLKRLLKQRNAALRQVTRYEQLRPWDKELIPLAEQISTWRAEYSAGIAADMADTCKQFLPEFSLTFSFQRGWEKETEYAEVLERNFERDRQLTYTAHGPHKADLRIRADGAPVEDTLSRGQLKLLMCALRLAQGEFLTRESGRRCLYLIDDFASELDDERRGLLASRLKATQSQVFVSAISAEHVIDMSDENSKMFTVEKGKITD
notes: RecF, E. coli; open reading frame (start to stop codons) of recF cloned in frame into pGAD-C3 and pGBD-C3; Stood as AD fusion and as BD fusion in turn; one molecule for both; source: yeast two-hybrid fusion (yeast CFy7; pEAW1241 pGAD-RecF, pEAW1242 pGBD-RecF)
B2: RecR (Gal4 fusion for yeast two-hybrid) (natural protein, E. coli, UniProt P0A7H6 1-201, looked up)
chain: MQTSPLLTQLMEALRCLPGVGPKSAQRMAFTLLQRDRSGGMRLAQALTRAMSEIGHCADCRTFTEQEVCNICSNPRRQENGQICVVESPADIYAIEQTGQFSGRYFVLMGHLSPLDGIGPDDIGLDRLEQRLAEEKITEVILATNPTVEGEATANYIAELCAQYDVEASRIAHGVPVGGELEMVDGTTLSHSLAGRHKIRF
notes: RecR, E. coli; open reading frame (start to stop codons) of recR; Stood as AD fusion and as BD fusion in turn; also called pGAD-RecR; pGBD-RecR; source: yeast two-hybrid fusion (yeast CFy7; pEAW1247 pGAD-RecR, pEAW1248 pGBD-RecR)

Tests used:
Experiment in all cases: two-hybrid; yeast CFy7; RecF fused to Gal4 AD (pGAD-C3) or BD (pGBD-C3) and the partner to the other domain; β-galactosidase activity of freeze/thaw-broken cells in Z buffer; 4 or 5 biological replicates; negative controls (empty C3) 0.21 (AD_RecF) and 0.27 units (BD_RecF)
[1] = target: B1; conditions: partners not purified
[2] = target: B2; conditions: partners not purified
[3] = target: T1, DnaN β-clamp (Gal4 fusion for yeast two-hybrid) (E. coli, UniProt P0A988 1-366); conditions: partners not purified
T1 construct: DnaN (β-clamp of DNA polymerase III), E. coli; open reading frame (start to stop codons) of dnaN; also called pGBD-DnaN; source: yeast two-hybrid fusion (yeast CFy7; pEAW1101 pGAD-DnaN, pEAW1104 pGBD-DnaN)
T1 sequence (P0A988 whole entry, the tested form may be a part): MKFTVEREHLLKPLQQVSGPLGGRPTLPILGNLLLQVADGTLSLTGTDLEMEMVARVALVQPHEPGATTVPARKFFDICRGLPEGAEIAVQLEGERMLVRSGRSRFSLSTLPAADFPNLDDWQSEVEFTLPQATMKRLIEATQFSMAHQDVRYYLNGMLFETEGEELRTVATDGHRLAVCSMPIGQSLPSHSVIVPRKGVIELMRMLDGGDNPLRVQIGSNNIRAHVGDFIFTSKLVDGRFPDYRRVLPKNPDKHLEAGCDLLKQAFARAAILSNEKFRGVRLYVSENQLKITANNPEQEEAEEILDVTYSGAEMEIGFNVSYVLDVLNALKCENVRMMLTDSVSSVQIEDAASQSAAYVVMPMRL

[4] = target: the molecule itself

β-galactosidase activity [1]	Binder	also measured
~0.5 units	RecO (Gal4 fusion for yeast two-hybrid) (natural protein, E. coli, UniProt P0A7H3 1-242, looked up, RecO, E. coli; open reading frame (start to stop codons) of recO; also called pGAD-RecO; pGBD-RecO; source: yeast two-hybrid fusion (yeast CFy7; pEAW1258 pGAD-RecO, pEAW1259 pGBD-RecO)) MEGWQRAFVLHSRPWSETSLMLDVFTEESGRVRLVAKGARSKRSTLKGALQPFTPLLLRFGGRGEVKTLRSAEAVSLALPLSGITLYSGLYINELLSRVLEYETRFSELFFDYLHCIQSLAGVTGTPEPALRRFELALLGHLGYGVNFTHCAGSGEPVDDTMTYRYREEKGFIASVVIDNKTFTGRQLKALNAREFPDADTLRAAKRFTRMALKPYLGGKPLKSRELFRQFMPKRTVKTHYE	–
~0.5 units	RadD (Gal4 fusion for yeast two-hybrid) (natural protein, E. coli, UniProt P33919 1-586, looked up, RadD (YejH), E. coli; also called YejH; pGAD-YejH; source: yeast two-hybrid fusion (yeast CFy7)) MIFTLRPYQQEAVDATLNHFRRHKTPAVIVLPTGAGKSLVIAELARLARGRVLVLAHVKELVAQNHAKYQALGLEADIFAAGLKRKESHGKVVFGSVQSVARNLDAFQGEFSLLIVDECHRIGDDEESQYQQILTHLTKVNPHLRLLGLTATPFRLGKGWIYQFHYHGMVRGDEKALFRDCIYELPLRYMIKHGYLTPPERLDMPVVQYDFSRLQAQSNGLFSEADLNRELKKQQRITPHIISQIMEFAATRKGVMIFAATVEHAKEIVGLLPAEDAALITGDTPGAERDVLIENFKAQRFRYLVNVAVLTTGFDAPHVDLIAILRPTESVSLYQQIVGRGLRLAPGKTDCLILDYAGNPHDLYAPEVGTPKGKSDNVPVQVFCPACGFANTFWGKTTADGTLIEHFGRRCQGWFEDDDGHREQCDFRFRFKNCPQCNAENDIAARRCRECDTVLVDPDDMLKAALRLKDALVLRCSGMSLQHGHDEKGEWLKITYYDEDGADVSERFRLQTPAQRTAFEQLFIRPHTRTPGIPLRWITAADILAQQALLRHPDFVVARMKGQYWQVREKVFDYEGRFRLAHELRG	–
–	B1	β-galactosidase activity [2]: 1.14 units; β-galactosidase activity [3]: 1.05 units; β-galactosidase activity [4]: 0.655 units
~0.5 units	TopB (Gal4 fusion for yeast two-hybrid) (natural protein, E. coli, UniProt P14294 1-653, looked up, TopB (DNA topoisomerase III), E. coli; open reading frame (start to stop codons) of topB; also called pGAD-TopB; pGBD-TopB; source: yeast two-hybrid fusion (yeast CFy7; pEAW1251 pGAD-TopB, pEAW1252 pGBD-TopB)) MRLFIAEKPSLARAIADVLPKPHRKGDGFIECGNGQVVTWCIGHLLEQAQPDAYDSRYARWNLADLPIVPEKWQLQPRPSVTKQLNVIKRFLHEASEIVHAGDPDREGQLLVDEVLDYLQLAPEKRQQVQRCLINDLNPQAVERAIDRLRSNSEFVPLCVSALARARADWLYGINMTRAYTILGRNAGYQGVLSVGRVQTPVLGLVVRRDEEIENFVAKDFFEVKAHIVTPADERFTAIWQPSEACEPYQDEEGRLLHRPLAEHVVNRISGQPAIVTSYNDKRESESAPLPFSLSALQIEAAKRFGLSAQNVLDICQKLYETHKLITYPRSDCRYLPEEHFAGRHAVMNAISVHAPDLLPQPVVDPDIRNRCWDDKKVDAHHAIIPTARSSAINLTENEAKVYNLIARQYLMQFCPDAVFRKCVIELDIAKGKFVAKARFLAEAGWRTLLGSKERDEENDGTPLPVVAKGDELLCEKGEVVERQTQPPRHFTDATLLSAMTGIARFVQDKDLKKILRATDGLGTEATRAGIIELLFKRGFLTKKGRYIHSTDAGKALFHSLPEMATRPDMTAHWESVLTQISEKQCRYQDFMQPLVGTLYQLIDQAKRTPVRQFRGIVAPGSGGSADKKKAAPRKRSAKKSPPADEVGSGAIA	–
1.63 units	B2	–
~0.5 units	RecQ (Gal4 fusion for yeast two-hybrid) (natural protein, RecQ helicase, E. coli; open reading frame (start to stop codons) of recQ; also called pGAD-RecQ; pGBD-RecQ; source: yeast two-hybrid fusion (yeast CFy7; pEAW1100 pGAD-RecQ, pEAW1105 pGBD-RecQ)) not shown	–
